Measured values taken from article PMC8172134.

Target: SARS-CoV spike prefusion stabilized ectodomain trimer (SARS-CoV) (UniProt P59594)
Experiment: cryo-EM structure

**Q.** For 47D11 Fab fragment, which stoichiometry N (Fab per spike trimer) is on record?
**A.** 3
